The record followed here is paper PMC9177983.

The test addresses reconstituted elongation complex (EC): His-tagged E. coli RNAP core complex on template DNA, non-template DNA and RNA transcript (E. coli).

Chain of NusG (P0AFG0 whole entry): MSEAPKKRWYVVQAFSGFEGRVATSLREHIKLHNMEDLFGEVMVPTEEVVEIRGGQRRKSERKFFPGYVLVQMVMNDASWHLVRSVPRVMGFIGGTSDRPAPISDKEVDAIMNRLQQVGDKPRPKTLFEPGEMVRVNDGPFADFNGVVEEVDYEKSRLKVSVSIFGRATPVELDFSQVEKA

On to “NusG (from UniProt P0AFG0 1-181) (natural protein)”, for which the smFRET of surface-immobilised ECs with 500 nM NusG, no nucleotide: percentage of dynamic ECs in the high-mid and high-low FRET regimes (23% for EC alone) came out at 33%.
